What was measured:
[1] = target: Grass carp reovirus (GCRV) coat protein VP5 (grass carp reovirus (GCRV)); test: cryo-EM structure
[2] = target: Grass carp reovirus (GCRV) turret protein VP1 (grass carp reovirus (GCRV)); test: cryo-EM structure

Grass carp reovirus (GCRV) coat protein VP5 (natural protein)
stoichiometry N [1]: 3

Grass carp reovirus (GCRV) turret protein VP1 (natural protein)
stoichiometry N [2]: 5

Reference: paper PMC2900198
